Test results reported in publication doi:10.1101/671156.
One block for each substance: values may come before it.

How the values were obtained:
[1] = target: biotin-labeled YxxQ diheptad peptide (human) (UniProt Q96PK6); assay: ELISA; details: domain or fragment
[2] = target: CoAA YxxQ repeats, 307-545 (UniProt Q96PK6); assay: plate-coated GST-YxxQ, biotin peptide, streptavidin-HRP; details: reference: unphosphorylated CTD peptide
Sequence of CoAA YxxQ repeats, 307-545 (Q96PK6 whole entry, looked up, tested part not stated): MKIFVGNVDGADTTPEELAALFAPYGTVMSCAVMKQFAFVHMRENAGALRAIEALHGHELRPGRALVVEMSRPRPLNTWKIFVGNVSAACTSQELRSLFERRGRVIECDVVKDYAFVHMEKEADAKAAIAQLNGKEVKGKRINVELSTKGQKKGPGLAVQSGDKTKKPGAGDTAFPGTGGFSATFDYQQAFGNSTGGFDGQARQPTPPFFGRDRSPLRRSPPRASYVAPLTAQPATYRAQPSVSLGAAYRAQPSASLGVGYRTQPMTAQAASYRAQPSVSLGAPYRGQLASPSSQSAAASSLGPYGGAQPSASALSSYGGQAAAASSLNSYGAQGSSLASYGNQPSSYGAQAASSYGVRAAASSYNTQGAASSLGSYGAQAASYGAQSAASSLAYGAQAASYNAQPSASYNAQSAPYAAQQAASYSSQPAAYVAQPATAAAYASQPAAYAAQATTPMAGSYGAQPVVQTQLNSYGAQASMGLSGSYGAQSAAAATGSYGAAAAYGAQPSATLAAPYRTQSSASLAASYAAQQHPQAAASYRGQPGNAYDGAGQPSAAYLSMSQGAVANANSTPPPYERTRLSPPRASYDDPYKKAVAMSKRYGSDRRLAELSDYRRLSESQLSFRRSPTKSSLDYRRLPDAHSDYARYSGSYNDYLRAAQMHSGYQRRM

Sequence of GST-CTD-AA (not phosphorylated, coated on plate) (P04050 whole entry, looked up): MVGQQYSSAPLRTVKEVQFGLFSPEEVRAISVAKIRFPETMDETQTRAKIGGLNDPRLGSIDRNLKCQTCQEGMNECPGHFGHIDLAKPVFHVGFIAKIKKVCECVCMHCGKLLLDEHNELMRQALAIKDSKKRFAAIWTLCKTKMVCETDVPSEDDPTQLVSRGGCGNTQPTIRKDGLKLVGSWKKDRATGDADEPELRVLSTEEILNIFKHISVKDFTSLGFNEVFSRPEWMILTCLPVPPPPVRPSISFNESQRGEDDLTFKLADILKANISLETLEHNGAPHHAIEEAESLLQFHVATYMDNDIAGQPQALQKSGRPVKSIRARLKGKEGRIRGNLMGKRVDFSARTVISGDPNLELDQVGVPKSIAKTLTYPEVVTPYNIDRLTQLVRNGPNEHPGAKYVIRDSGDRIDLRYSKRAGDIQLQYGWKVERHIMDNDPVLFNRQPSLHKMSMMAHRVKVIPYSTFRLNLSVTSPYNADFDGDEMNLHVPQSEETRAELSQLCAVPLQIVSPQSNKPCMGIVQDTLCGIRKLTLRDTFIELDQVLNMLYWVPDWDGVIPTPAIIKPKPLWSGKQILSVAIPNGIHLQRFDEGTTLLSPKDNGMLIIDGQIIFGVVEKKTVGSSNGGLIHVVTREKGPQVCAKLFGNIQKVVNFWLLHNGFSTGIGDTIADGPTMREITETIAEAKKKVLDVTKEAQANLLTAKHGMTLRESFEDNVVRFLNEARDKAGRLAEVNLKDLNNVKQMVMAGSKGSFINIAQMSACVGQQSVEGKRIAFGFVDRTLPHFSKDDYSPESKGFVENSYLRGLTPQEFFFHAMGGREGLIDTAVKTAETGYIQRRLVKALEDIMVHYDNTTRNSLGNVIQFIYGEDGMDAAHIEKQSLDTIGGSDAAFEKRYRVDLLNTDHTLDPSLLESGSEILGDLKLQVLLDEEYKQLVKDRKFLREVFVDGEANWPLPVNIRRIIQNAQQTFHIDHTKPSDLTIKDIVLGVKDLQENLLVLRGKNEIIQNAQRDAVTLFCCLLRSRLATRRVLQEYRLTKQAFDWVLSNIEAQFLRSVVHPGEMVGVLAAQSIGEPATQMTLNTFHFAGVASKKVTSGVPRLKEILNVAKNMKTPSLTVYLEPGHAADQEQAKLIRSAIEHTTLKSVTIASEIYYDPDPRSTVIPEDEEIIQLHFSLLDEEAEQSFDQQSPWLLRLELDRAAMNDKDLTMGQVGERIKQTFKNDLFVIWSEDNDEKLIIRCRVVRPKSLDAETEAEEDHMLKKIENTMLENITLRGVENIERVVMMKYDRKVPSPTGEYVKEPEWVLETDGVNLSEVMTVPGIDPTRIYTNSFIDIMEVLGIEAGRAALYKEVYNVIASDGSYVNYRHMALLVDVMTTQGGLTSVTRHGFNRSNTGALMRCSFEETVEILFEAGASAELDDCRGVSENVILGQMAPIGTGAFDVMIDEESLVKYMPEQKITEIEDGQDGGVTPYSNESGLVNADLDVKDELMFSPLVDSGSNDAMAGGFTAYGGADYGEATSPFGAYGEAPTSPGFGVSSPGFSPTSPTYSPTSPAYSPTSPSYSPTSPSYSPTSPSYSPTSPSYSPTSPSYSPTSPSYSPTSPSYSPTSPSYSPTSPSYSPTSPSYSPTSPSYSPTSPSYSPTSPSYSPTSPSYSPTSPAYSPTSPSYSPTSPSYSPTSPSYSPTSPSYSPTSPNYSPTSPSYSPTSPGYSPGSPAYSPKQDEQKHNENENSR

EC50 [1]: 2430 nM
Substance: GST-CTD-AA (not phosphorylated, coated on plate) (from UniProt P04050)

EC50 ([2]; sites S2): stronger; reference 1066
Substance: RNA polymerase II largest subunit CTD pSer2 CTD peptide

EC50 ([2]; sites S5): stronger; reference 1066
Substance: RNA polymerase II largest subunit CTD pSer5 CTD peptide
